Data from patent US20100292104A1 (LAWRENCE LIVERMORE NATIONAL SECURITY, published 2010).

Biological target: Maltose Binding Protein (MBP)-N-intein fusion protein (Synechocystis sp. PCC6803, UniProt P74750 771-897)
Assay: cell-based or functional assay

trans-splicing activity relative to the non-photocaged C-intein polypeptide	Binder
~30%	DnaE C-intein polypeptide photocaged at Gly19 (Gly19 backbone amide caged with nitroveratryl (1,2-dimethoxy-4-methyl-3-nitro-benzyl) group; C-terminal PEGylated thiol linker; Cys37 protected as S-tBu during synthesis) peptide: not shown
10%	DnaE C-intein polypeptide photocaged at Gly31 (Gly31 backbone amide caged with nitroveratryl (1,2-dimethoxy-4-methyl-3-nitro-benzyl) group; C-terminal PEGylated thiol linker; Cys37 protected as S-tBu during synthesis) peptide: not shown
~30%	DnaE C-intein polypeptide photocaged at Gly6 (Gly6 backbone amide caged with nitroveratryl (1,2-dimethoxy-4-methyl-3-nitro-benzyl) group; C-terminal PEGylated thiol linker; Cys37 protected as S-tBu during synthesis) peptide: not shown
~60%	DnaE C-intein polypeptide photocaged at Gly11 (Gly11 backbone amide caged with nitroveratryl (1,2-dimethoxy-4-methyl-3-nitro-benzyl) group; C-terminal PEGylated thiol linker; Cys37 protected as S-tBu during synthesis) peptide: not shown
